Source: patent publication US20250171534A1 (D2M BIOTHERAPEUTICS, published 2025)

Experiments:
[1] = biological target: T1, LILRB3 expressed on cells (human, UniProt O75022 24-631); experiment: flow cytometry on 293T cells transiently expressing LILRB3, APC anti-human Fc; gMFI as fold to IgG staining
T1 construct: whole, on cells; Expressed with a GFP tag from the bought plasmid; also called human LILRB3; CHO-LILRB3

[2] = biological target: T2, LILRA5 expressed on 293T cells (UniProt A6NI73 42-299, limits assumed); experiment: flow cytometry on 293T cells transiently expressing LILRA5, antibody 5 µg/mL, APC anti-human Fc; gMFI as fold to IgG staining
T2 construct: whole, on cells; GFP-tagged, transient
T2 sequence (A6NI73 42-299 limits assumed): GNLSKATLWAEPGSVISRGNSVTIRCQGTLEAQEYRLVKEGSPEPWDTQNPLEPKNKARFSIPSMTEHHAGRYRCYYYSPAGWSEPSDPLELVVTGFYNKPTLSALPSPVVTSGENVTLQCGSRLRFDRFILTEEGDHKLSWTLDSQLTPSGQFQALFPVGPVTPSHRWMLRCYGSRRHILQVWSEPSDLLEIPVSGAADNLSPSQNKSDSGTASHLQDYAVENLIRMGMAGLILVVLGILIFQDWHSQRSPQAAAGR

[3] = biological target: T3, LILRB1-ECD-HIS (SinoBiological Cat #: 16014-H02H) (human, UniProt Q8NHL6 24-461); experiment: BLI epitope binning (Gator)
T3 construct: Bought protein; also called monomeric antigen LILRB1-ECD-HIS; not shown: His tag
T3 sequence (Q8NHL6 other isoform, or with tags, fused parts or gaps H02H H02H): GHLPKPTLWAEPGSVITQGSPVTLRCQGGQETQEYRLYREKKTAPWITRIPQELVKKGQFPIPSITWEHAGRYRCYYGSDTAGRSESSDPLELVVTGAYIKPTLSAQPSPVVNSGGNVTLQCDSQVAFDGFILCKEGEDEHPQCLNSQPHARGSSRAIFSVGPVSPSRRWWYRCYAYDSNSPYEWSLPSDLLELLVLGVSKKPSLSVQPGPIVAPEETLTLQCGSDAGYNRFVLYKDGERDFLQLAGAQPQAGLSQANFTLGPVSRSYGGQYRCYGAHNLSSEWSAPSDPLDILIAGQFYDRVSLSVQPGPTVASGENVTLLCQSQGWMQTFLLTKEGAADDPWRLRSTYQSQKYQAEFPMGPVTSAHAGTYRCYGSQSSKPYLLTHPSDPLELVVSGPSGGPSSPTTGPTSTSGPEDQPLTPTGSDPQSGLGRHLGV

[4] = biological target: T4, LILRB2-ECD-HIS (SinoBiological Cat #: 14132-H02H) (human, UniProt Q8N423 22-460); experiment: BLI epitope binning (Gator), monomeric antigen
T4 construct: Bought protein; also called monomeric antigen LILRB2-ECD-HIS; not shown: His tag
T4 sequence (Q8N423 other isoform, or with tags, fused parts or gaps H02H H02H): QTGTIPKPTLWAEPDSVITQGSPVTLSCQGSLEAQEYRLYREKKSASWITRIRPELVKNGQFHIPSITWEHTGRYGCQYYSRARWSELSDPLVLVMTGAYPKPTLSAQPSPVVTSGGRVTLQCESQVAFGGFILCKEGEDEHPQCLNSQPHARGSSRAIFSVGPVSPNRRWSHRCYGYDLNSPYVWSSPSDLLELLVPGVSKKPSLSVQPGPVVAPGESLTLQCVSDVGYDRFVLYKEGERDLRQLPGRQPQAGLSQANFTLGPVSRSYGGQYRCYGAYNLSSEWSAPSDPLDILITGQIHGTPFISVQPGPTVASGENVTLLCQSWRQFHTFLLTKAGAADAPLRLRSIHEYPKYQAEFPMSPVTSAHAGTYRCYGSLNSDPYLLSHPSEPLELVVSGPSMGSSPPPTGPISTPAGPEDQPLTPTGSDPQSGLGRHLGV

[5] = biological target: T5, LILRA6 expressed on cells (human, UniProt Q6PI73 24-481); experiment: flow cytometry on 293T cells transiently expressing LILRA6, APC anti-human Fc; gMFI as fold to IgG staining
T5 construct: whole, on cells; GFP-tagged; also called human LILRA6; CHO-LILRA6
T5 sequence (Q6PI73 24-481): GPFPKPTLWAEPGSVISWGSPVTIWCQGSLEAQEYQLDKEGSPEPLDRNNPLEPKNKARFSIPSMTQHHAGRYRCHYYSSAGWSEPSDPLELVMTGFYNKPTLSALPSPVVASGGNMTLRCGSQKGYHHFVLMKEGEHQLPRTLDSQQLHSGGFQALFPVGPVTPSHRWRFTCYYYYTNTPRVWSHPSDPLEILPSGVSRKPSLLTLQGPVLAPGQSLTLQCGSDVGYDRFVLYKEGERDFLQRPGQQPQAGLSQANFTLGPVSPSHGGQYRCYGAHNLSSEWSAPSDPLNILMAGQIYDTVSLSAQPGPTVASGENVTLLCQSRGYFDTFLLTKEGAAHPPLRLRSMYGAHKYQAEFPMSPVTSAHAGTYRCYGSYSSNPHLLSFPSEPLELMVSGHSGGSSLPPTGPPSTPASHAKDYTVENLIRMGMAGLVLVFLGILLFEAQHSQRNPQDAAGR

[6] = biological target: T6, human LILRB1 expressed on cells (human, UniProt Q8NHL6 24-650); experiment: flow cytometry on 293T cells transiently expressing LILRB1, APC anti-human Fc; gMFI as fold to IgG staining
T6 construct: In 293T cells it was expressed from pCMV3-LILRB1-GFP; also called CHO-LILRB1; Jurkat-LILRB1
T6 sequence (Q8NHL6 other isoform, or with tags, fused parts or gaps limits assumed): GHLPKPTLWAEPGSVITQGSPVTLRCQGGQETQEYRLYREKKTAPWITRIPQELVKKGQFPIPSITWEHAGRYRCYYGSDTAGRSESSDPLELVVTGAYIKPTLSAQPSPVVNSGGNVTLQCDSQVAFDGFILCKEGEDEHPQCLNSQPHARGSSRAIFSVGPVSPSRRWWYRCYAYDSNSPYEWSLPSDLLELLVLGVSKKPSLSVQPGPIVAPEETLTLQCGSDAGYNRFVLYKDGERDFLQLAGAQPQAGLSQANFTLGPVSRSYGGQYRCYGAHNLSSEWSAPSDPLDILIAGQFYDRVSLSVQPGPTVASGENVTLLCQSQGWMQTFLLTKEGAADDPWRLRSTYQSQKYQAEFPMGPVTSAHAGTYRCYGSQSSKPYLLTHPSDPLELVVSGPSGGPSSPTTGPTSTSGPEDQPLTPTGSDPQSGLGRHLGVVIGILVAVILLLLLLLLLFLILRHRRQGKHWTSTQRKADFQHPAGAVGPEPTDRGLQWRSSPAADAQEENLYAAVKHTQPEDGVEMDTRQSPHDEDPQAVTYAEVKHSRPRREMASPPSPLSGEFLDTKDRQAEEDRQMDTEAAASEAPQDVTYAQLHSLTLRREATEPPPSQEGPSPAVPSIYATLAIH

[7] = biological target: T7, human LILRB2 expressed on cells (human, UniProt Q8N423 22-597); experiment: flow cytometry, CHO-LILRB2 cells
T7 construct: In 293T cells it was expressed from pCMV3-LILRB2-GFP; also called CHO-LILRB2; Jurkat-LILRB2
T7 sequence (Q8N423 other isoform, or with tags, fused parts or gaps limits assumed): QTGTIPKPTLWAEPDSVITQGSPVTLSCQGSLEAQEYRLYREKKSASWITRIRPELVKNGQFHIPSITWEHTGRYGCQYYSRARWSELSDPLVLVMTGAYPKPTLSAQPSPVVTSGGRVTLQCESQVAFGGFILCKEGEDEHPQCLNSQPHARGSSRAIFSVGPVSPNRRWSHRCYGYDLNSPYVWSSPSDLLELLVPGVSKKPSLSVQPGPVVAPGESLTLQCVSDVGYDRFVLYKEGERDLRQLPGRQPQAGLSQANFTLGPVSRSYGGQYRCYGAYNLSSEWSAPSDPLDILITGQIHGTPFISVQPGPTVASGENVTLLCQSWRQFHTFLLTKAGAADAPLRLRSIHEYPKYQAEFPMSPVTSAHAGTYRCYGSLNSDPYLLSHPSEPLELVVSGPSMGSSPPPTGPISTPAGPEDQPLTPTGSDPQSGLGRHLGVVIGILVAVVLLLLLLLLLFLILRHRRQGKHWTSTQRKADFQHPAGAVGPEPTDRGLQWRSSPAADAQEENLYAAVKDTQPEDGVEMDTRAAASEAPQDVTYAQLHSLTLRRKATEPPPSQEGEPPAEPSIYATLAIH

[8] = biological target: T7, human LILRB2 expressed on cells; experiment: flow cytometry, CHO-LILRB2 cells; remark: listed apart in the source
[9] = biological target: T8, LILRA3 expressed on 293T cells (UniProt Q8N6C8 24-439, limits assumed); experiment: flow cytometry on 293T cells transiently expressing LILRA3, APC anti-human Fc; gMFI as fold to IgG staining
T8 construct: whole, on cells; GFP-tagged, transient
T8 sequence (Q8N6C8 24-439 limits assumed): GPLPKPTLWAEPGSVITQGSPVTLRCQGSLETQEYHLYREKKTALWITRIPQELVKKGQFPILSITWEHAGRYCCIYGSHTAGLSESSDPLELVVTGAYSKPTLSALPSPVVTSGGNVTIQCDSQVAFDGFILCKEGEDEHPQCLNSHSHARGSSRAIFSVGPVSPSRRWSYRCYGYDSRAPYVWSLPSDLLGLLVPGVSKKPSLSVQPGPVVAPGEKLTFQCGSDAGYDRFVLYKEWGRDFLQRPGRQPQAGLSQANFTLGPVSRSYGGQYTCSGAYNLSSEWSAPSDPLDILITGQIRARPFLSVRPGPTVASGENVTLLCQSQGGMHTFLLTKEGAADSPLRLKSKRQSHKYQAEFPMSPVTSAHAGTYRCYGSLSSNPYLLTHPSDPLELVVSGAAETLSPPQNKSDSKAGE

[10] = biological target: T9, LILRA2 expressed on 293T cells (UniProt Q8N149 24-483, limits assumed); experiment: flow cytometry on 293T cells transiently expressing LILRA2, APC anti-human Fc; gMFI as fold to IgG staining
T9 construct: whole, on cells; GFP-tagged, transient
T9 sequence (Q8N149 24-483 limits assumed): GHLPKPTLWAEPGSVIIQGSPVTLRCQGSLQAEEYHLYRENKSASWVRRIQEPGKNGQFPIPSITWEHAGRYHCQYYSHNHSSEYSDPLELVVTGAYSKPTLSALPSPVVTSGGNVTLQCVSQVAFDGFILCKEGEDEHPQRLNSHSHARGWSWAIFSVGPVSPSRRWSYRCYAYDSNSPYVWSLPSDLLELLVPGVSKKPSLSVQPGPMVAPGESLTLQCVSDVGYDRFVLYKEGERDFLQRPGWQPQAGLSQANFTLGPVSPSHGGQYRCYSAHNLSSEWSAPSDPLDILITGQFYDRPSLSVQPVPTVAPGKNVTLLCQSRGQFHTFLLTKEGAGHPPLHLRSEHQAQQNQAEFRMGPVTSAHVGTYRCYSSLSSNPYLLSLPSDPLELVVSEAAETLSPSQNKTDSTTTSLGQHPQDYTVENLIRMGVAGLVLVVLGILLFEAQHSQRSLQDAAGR

[11] = biological target: T10, LILRB5 expressed on 293T cells (UniProt O75023 24-590, limits assumed); experiment: flow cytometry on 293T cells transiently expressing LILRB5, APC anti-human Fc; gMFI as fold to IgG staining
T10 construct: whole, on cells; GFP-tagged, transient
T10 sequence (O75023 24-590 limits assumed): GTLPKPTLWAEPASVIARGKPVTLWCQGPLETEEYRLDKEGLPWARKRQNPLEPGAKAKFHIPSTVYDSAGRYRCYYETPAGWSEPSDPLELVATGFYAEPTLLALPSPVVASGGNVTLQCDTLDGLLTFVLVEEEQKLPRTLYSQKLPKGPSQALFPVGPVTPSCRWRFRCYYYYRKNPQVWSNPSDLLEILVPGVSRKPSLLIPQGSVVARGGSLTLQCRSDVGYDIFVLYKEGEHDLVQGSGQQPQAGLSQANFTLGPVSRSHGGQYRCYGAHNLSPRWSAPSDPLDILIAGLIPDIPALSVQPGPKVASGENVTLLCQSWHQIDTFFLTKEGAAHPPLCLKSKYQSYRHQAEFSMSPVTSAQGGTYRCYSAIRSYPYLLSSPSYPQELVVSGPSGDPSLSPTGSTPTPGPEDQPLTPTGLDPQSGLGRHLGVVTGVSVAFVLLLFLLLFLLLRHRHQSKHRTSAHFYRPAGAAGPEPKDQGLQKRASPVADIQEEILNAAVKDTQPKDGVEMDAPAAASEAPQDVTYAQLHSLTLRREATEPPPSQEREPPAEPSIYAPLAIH

[12] = biological target: T4, LILRB2-ECD-HIS (SinoBiological Cat #: …); experiment: SPR (Carterra LSA), antibody captured, antigen injected;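 further: kd obtained from kinetic analysis of antibody binding to the antigen, with association and dissociation phases fitted in the instrument software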
[13] = biological target: T3, LILRB1-ECD-HIS (SinoBiological Cat #: …); experiment: as above
[14] = biological target: T6, human LILRB1 expressed on cells; experiment: flow cytometry, CHO-LILRB1 cells

B1: Anti-LILRB2 antibody 1E1(QE) (antibody, human IgG4 S228P, lambda, V domains shown)
VH: EVQLQQWGAGLLKPSETLSLTCAVYGGSFSGYYWSWIRQPPGKGLEWIGEINHSGSTNYNPSLKSRVTISVDTSKNQFSLKLSSVTAADTAVYYCARLPTRWVTTRYFDLWGRGTLVTVSS
VL: ESVLTQPPSVSGAPGQRVTISCTGSSSNIGAGYDVHWYQQLPGTAPKLLIYGNSNRPSGVPDRFSVSKSGASASLAITGLQAEDEADYYCQSFDNSLSAYVFGGGTQLTVLG
binding result [1]: no binding (tested: 5 µg/mL) | binding result [2]: binds | binding result [3]: no binding | binding result [4]: binds | binding result [5]: no binding (tested: 5 µg/mL) | binding result [6]: no binding (tested: 5 µg/mL) | EC50 (read off the curve) [7]: ~0.04 mg/L | EC50 [8]: 0.042 mg/L | gMFI (max) [8]: 11800 | binding result [9]: no binding (tested: 5 µg/mL) | binding result [10]: no binding (tested: 5 µg/mL) | binding result [11]: no binding (tested: 5 µg/mL)

B2: D2M002-044 (antibody, human IgG1, V domains shown)
VH: EVQLQQSGAELVRPGALVKLSCKGSGFNIKDYYMHWVRQRPEQGLEWIGWIDPENGNTVYAPKFQGKASITSDTSSNIAYLQFSSLTSEDTAVYYCARSRDHGAMDYWGQGTSVTVSS
VL: DVQITQSPAIMSASPGEKVTLTCSASSSVSSSNLYWYQQKPGSSPKLWIYSTSNLASGVPARFSGSGFGTSYALTISSMEAEDAASYFCHQWSSYPYTFGGGTKLEIK
notes: Hit; also called clone #44
Kd [12]: 0.00485 µM | Kd [13]: 1 µM | binding result [14]: no binding (tested: 5 µg/mL) | EC50 (read off the curve) [7]: ~0.06 mg/L | EC50 [8]: 0.061 mg/L | gMFI (max) [8]: 22900
